According to publication PMC6238609, “Secretory granule protein chromogranin B (CHGB) forms an anion channel in membranes” (Life Science Alliance, 2018):

Experiments:
[1] = target: the molecule itself; assay: SEC; partially purified CHGB in a Superose 6 column, earlier SEC step during purification
[2] = target: the molecule itself; assay: SEC; purified CHGB in detergent (0.050% Triton X-100), Superose 6 10/30 column; single symmetric peak

B1: recombinant murine chromogranin B (CHGB) (natural protein, mouse, UniProt P16014 21-677, looked up)
chain: APVDNRDHNEEMVTRCIIEVLSNALSKSSVPTITPECRQVLKKSGKEVKGEEKGENQNSKFEVRLLRDPADASGTRWASSREDAGAPVEDSQGQTKVGNEKWTEGGGHSREGVDDQESLRPSNQQASKEAKIYHSEERVGKEREKEEGKIYPMGEHREDAGEEKKHIEDSGEKPNTFSNKRSEASAKKKDESVARADAHSMELEEKTHSREQSSQESGEETRRQEKPQELTDQDQSQEESQEGEEGEEGEEGEEGEEDSASEVTKRRPRHHHGRSGSNKSSYEGHPLSEERRPSPKESKEADVATVRLGEKRSHHLAHYRASEEEPEYGEESRSYRGLQYRGRGSEEDRAPRPRSEESQEREYKRNHPDSELESTANRHGEETEEERSYEGANGRQHRGRGREPGAHSALDTREEKRLLDEGHYPVRESPIDTAKRYPQSKWQEQEKNYLNYGEEGDQGRWWQQEEQLGPEESREEVRFPDRQYEPYPITEKRKRLGALFNPYFDPLQWKNSDFEKRGNPDDSFLEDEGEDRNGVTLTEKNSFPEYNYDWWERRPFSEDVNWGYEKRSFARAPQLDLKRQYDGVAELDQLLHYRKKADEFPDFYDSEEQMGPHQEANDEKARADQRVLTAEEKKELENLAAMDLELQKIAEKFSQRG
notes: chromogranin B (CHGB), mouse; cDNA of the mouse CHGB gene (mChgb) cloned from a pcDNA3.1 plasmid into pFastBac 1; The protein needs Triton X-100-like detergents to stay soluble; also called mCHGB; mouse CHGB; source: sf9 cells (baculovirus), purified (Q-sepharose, ammonium sulfate, Ni-IDA, Superose 6 SEC) in Triton X-100
stoichiometry N [1]: 4
stoichiometry N [2]: 2
